Blank lines part the entries; values can stand above or below the molecule they belong to.
Columns and labels:
Fibrinogen fragment D [1] = target: T1, Fibrinogen fragment D (human, UniProt P02671 130-216; P02675 164-491; P02679 114-432, limits assumed); assay: SPR (Biacore 2000), fragment D immobilised, equilibrium response fit to a single-site model
T1 construct: domain: Fragment D (or D-domain); Made by plasmin digestion of human fibrinogen and purified on GPRPAA beads; holds the C-terminal polymerization pockets without the N-terminal knobs; immobilised by amine coupling on the SPR chip; also called D-domain
T1 sequence (looked up) 1: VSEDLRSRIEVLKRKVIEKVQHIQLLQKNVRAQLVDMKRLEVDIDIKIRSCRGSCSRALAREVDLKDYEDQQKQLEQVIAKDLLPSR
T1 sequence (looked up) 2: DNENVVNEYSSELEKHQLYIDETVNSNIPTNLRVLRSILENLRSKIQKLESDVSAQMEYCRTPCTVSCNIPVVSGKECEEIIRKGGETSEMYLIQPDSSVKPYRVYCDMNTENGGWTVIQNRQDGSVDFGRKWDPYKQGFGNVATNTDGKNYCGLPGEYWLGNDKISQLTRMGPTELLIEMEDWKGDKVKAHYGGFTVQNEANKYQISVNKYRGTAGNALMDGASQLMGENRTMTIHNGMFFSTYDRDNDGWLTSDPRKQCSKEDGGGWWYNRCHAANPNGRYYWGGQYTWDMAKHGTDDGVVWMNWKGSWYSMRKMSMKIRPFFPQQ
T1 sequence (looked up) 3: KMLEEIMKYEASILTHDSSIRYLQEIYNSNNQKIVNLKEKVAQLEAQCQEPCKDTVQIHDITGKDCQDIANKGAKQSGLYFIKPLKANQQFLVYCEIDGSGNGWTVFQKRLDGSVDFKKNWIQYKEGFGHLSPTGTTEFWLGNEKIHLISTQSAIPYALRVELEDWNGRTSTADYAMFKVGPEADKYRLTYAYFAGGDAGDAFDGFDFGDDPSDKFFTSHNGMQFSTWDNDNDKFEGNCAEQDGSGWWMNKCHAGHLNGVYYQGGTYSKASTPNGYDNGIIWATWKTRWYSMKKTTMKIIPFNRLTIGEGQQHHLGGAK

Fibrinogen fragment D [2] = target: T1, Fibrinogen fragment D; assay: SPR, fragment D immobilised, competitor soluble GPRP peptide in the analyte solution
[3] = target: Fibrin matrix (clot) (human) (UniProt P02671); assay: confocal colocalisation, perfused fibrin clot, 10 min
Chain of Fibrin matrix (clot) (human) (P02671 36-629 limits assumed, chain 1 of 2): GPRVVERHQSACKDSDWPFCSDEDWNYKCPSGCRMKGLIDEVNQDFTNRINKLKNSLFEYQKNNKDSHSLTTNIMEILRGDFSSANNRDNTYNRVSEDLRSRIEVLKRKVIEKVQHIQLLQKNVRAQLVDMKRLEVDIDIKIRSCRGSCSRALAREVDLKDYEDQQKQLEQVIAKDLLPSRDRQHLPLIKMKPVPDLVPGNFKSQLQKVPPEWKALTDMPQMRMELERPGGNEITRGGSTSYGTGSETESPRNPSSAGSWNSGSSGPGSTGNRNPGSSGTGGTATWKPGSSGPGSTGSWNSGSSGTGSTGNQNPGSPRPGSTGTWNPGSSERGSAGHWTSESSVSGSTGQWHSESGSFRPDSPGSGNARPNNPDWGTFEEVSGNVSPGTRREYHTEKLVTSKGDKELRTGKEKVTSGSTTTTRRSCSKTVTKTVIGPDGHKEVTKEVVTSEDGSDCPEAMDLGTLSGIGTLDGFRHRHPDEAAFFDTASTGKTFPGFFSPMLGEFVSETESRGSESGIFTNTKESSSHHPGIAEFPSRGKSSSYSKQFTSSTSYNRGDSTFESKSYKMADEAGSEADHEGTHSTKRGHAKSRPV
Chain of Fibrin matrix (clot) (human) (P02679 other isoform, or with tags, fused parts or gaps limits assumed, chain 3 of 2, further chain): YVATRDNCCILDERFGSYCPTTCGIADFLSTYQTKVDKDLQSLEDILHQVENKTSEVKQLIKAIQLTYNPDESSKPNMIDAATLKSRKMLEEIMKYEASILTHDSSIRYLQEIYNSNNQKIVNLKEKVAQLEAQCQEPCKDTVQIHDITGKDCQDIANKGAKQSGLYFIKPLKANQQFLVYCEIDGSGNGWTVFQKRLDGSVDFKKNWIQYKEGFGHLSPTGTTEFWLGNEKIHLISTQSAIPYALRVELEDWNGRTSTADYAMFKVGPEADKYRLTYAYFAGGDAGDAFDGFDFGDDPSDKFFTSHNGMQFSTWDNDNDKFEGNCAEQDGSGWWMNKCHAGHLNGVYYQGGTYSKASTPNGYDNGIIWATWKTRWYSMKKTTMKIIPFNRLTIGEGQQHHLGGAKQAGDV

[4] = target: Fibrin matrix (clot) (human) (UniProt P02671); assay: confocal colocalisation, perfused fibrin clot, 0 min
[5] = target: Fibrin matrix (clot) (human) (UniProt P02671); assay: confocal colocalisation, perfused fibrin clot, 30 min
[6] = target: Fibrin matrix (clot) (human) (UniProt P02671); assay: confocal colocalisation, perfused fibrin clot, 20 min
Fibrinogen fragment D [7] = target: T1, Fibrinogen fragment D; assay: SPR, fragment D immobilised, heterogeneous ligand model, site 2
Experimental: (§1) Upon stabilization of the baseline signal, kinetic binding experiments were run in duplicate with the peptide variants as the flow analytes. Five varying concentrations for each peptide (0.94 μM to 150 μM) were flowed at 25 μL/min for 4 min immediately followed by a 10 min dissociation phase. Between each run, the surface was regenerated with 1M sodium bromide and 50 mM sodium acetate (pH 6.0). SPR experiments were performed three times with varying peptide injection order to rule out binding trends associated with injection sequence. Peptide solutions were incubated with tris(2-carboxyethyl)phosphine (TCEP) immobilized on agarose beads (Thermo Fisher Scientific, Inc; Rockland, Ill.) to ensure reduction of any disulfide bonds between C-terminal cysteines.
(§2) To investigate the dynamic binding profile between the fibrinogen/fibrin holes and knob peptide variants, SPR was employed. Binding interactions were evaluated by flowing the knob peptides over an immobilized surface of fragment D (FIG. 8). By immobilizing fragment D as opposed to full-length fibrinogen, the kinetic binding model was simplified to a heterogeneous 2-site ligand model (i.e. one hole ‘a’ and hole ‘b’ per ligand) as opposed to a 4-site model (i.e. two of each hole ‘a’ and hole ‘b’ per ligand). The data was modeled using both a Langmuir 1:1 model and a heterogeneous ligand model to compare previously established binding affinities to a more dynamic two-site model. However, the complexity of the heterogeneous model fitted parameters for sites 1 and 2 (i.e. maximal binding response, kₐ, and kd) limits direct designation or assignment of holes ‘a’ or ‘b’ to site 1 or 2. […] All peptide SPR data was fit except for the negative control peptide, GPSPAAC (SEQ ID NO:9), where minimal binding response was observed.

Fibrinogen fragment D [8] = target: T1, Fibrinogen fragment D; assay: SPR, fragment D immobilised, heterogeneous ligand model, site 2 (kd2)
Experimental: as §1, §2

Fibrinogen fragment D [9] = target: T1, Fibrinogen fragment D; assay: SPR, fragment D immobilised, heterogeneous ligand model, site 1 (kd1)
Experimental: as §1, §2

Fibrinogen fragment D [10] = target: T1, Fibrinogen fragment D; assay: SPR (Biacore 2000), fragment D immobilised, Langmuir 1:1 model
Experimental: as §1, §2

Fibrinogen fragment D [11] = target: T1, Fibrinogen fragment D; assay: SPR, fragment D immobilised, heterogeneous ligand model, site 1 (ka1)
Experimental: as §1, §2

Fibrinogen fragment D [12] = target: T1, Fibrinogen fragment D; assay: SPR, fragment D immobilised, Langmuir 1:1 model
Experimental: as §1, §2

Fibrinogen fragment D [13] = target: T1, Fibrinogen fragment D; assay: SPR, fragment D immobilised, heterogeneous ligand model, site 1
Experimental: as §1, §2

Fibrinogen fragment D [14] = target: T1, Fibrinogen fragment D; assay: SPR, heterogeneous ligand model, site 1 (KD1 = kd/ka)
Experimental: as §1, §2

Fibrinogen fragment D [15] = target: T1, Fibrinogen fragment D; assay: SPR, heterogeneous ligand model, site 2 (KD2 = kd/ka)
Experimental: as §1, §2

Fibrinogen fragment D [16] = target: T1, Fibrinogen fragment D; assay: SPR maximal binding response against peptide concentration, fibrinogen fragment D immobilised
Experimental: as §1
Prior to analysis, all sensorgrams were inspected for abnormalities (i.e. baseline drift, air spikes, or irregular deviations) and excluded. Reference cell responses were subtracted from corresponding active response curves. […] The resulting curves were then analyzed and fitted to the kinetic models. Kinetic modeling and simulations were performed with ClampXP software using the Langmuir 1:1 model or the heterogeneous ligand model; globally fitted parameters were determined for each kinetic data set per peptide. Equilibrium binding constants were calculated from fitted kinetic constants.

Fibrinogen fragment D [17] = target: T1, Fibrinogen fragment D; assay: SPR, fragment D immobilised, heterogeneous ligand model, site 2 (ka2)
Experimental: as §1
To investigate the dynamic binding profile between the fibrinogen/fibrin holes and knob peptide variants, SPR was employed. Binding interactions were evaluated by flowing the knob peptides over an immobilized surface of fragment D (FIG. 8). By immobilizing fragment D as opposed to full-length fibrinogen, the kinetic binding model was simplified to a heterogeneous 2-site ligand model (i.e. one hole ‘a’ and hole ‘b’ per ligand) as opposed to a 4-site model (i.e. two of each hole ‘a’ and hole ‘b’ per ligand). […]

Human fibrinogen (human) = Human fibrinogen (human) (UniProt P02671); assay: competition ELISA: soluble peptide added to fibrinogen, binding of fibrinogen to immobilised GPRP-FnIII9-10-C is measured; signal normalised to the GSPE peptide

Molecule: GPRP-FnIII9-10 (from UniProt P02751 1448-1631)
Kd (Fibrinogen fragment D [1]): 3 µM
KD in the presence of a 10-molar excess of soluble GPRP peptide (Fibrinogen fragment D [2]): 43 µM

Molecule: GPRP-FnIII9-10-AF633 (from UniProt P02751 1448-1631)
Colocalization Coefficient (Fibrin) [3]: 0.325
Colocalization Coefficient (GPRP-Fn) [3]: 0.956
Correlation Coefficient (R) [3]: 0.19
Mean Intensity (GPRP-Fn) [3]: 55
Relative Area of Colocalization [3]: 28.5%
Colocalization Coefficient (Fibrin) [4]: 0.981
Colocalization Coefficient (GPRP-Fn) [4]: 0.965
Correlation Coefficient (R) [4]: 0.47
Mean Intensity (GPRP-Fn) [4]: 100
Relative Area of Colocalization [4]: 94.2%
Colocalization Coefficient (Fibrin) [5]: 0.159
Colocalization Coefficient (GPRP-Fn) [5]: 0.926
Correlation Coefficient (R) [5]: 0.11
Mean Intensity (GPRP-Fn) [5]: 51
Relative Area of Colocalization [5]: 12.8%
Colocalization Coefficient (Fibrin) [6]: 0.219
Colocalization Coefficient (GPRP-Fn) [6]: 0.948
Correlation Coefficient (R) [6]: 0.14
Mean Intensity (GPRP-Fn) [6]: 52
Relative Area of Colocalization [6]: 19.1%

B2: GPRPAAC (peptide)
peptide: GPRPAAC
notes: Synthetic (GenScript); kept reduced with immobilised TCEP; also called gold standard GPRP mimic; knob 'A' peptide
B*max (maximal binding capacity of fragment D, site 2) (Fibrinogen fragment D [7]): 5.91 RU
koff (Fibrinogen fragment D [8]): 0.00895 s⁻¹
koff (Fibrinogen fragment D [9]): 0.0128 s⁻¹
Bmax (maximal binding capacity of fragment D) (Fibrinogen fragment D [10]): 21.5 RU
kon (Fibrinogen fragment D [11]): 2840 M⁻¹ s⁻¹
koff (Fibrinogen fragment D [12]): 0.0117 s⁻¹
kon (Fibrinogen fragment D [12]): 1140 M⁻¹ s⁻¹
Bmax (maximal binding capacity of fragment D, site 1) (Fibrinogen fragment D [13]): 19.4 RU
Kd (Fibrinogen fragment D [14]): 4.53 µM
Kd (Fibrinogen fragment D [15]): 8.52 µM

B3: GPSPAAC (peptide)
peptide: GPSPAAC
notes: Synthetic (GenScript); negative control; also called negative control peptide
binding result (Fibrinogen fragment D [16]): no binding (tested: just below 10^-4 M (last point))

Continued, values first:

Colocalization Coefficient (Fibrin) [3]: 0.001
Colocalization Coefficient (GSPE-Fn) [3]: 0.521
Correlation Coefficient (R) [3]: -0.06
Mean Intensity (GSPE-Fn) [3]: 45
Relative Area of Colocalization [3]: 0%
Colocalization Coefficient (Fibrin) [4]: 0.01
Colocalization Coefficient (GSPE-Fn) [4]: 0.739
Correlation Coefficient (R) [4]: 0.04
Mean Intensity (GSPE-Fn) [4]: 46
Relative Area of Colocalization [4]: 0.6%
Colocalization Coefficient (Fibrin) [5]: 0.003
Colocalization Coefficient (GSPE-Fn) [5]: 0.377
Correlation Coefficient (R) [5]: -0.02
Mean Intensity (GSPE-Fn) [5]: 38
Relative Area of Colocalization [5]: 0.1%
Colocalization Coefficient (Fibrin) [6]: 0.003
Colocalization Coefficient (GSPE-Fn) [6]: 0.0413
Correlation Coefficient (R) [6]: 0.02
Mean Intensity (GSPE-Fn) [6]: 44
Relative Area of Colocalization [6]: 0.1%
Molecule: GSPE-FnIII9-10-AF633 (from UniProt P02751 1448-1631)

Kd (Fibrinogen fragment D [1]): 125 µM
Molecule: GPRV-FnIII9-10 (from UniProt P02751 1448-1631)

B*max (maximal binding capacity of fragment D, site 2) (Fibrinogen fragment D [7]): 5.92 RU
koff (Fibrinogen fragment D [8]): 0.00296 s⁻¹
koff (Fibrinogen fragment D [9]): 0.0587 s⁻¹
Bmax (maximal binding capacity of fragment D) (Fibrinogen fragment D [10]): 19.2 RU
kon (Fibrinogen fragment D [11]): 3220 M⁻¹ s⁻¹
koff (Fibrinogen fragment D [12]): 0.00992 s⁻¹
kon (Fibrinogen fragment D [12]): 1290 M⁻¹ s⁻¹
Bmax (maximal binding capacity of fragment D, site 1) (Fibrinogen fragment D [13]): 14.6 RU
Kd (Fibrinogen fragment D [14]): 18.2 µM
Kd (Fibrinogen fragment D [15]): 2.93 µM
B1: GPRPPERC (peptide)
peptide: GPRPPERC
notes: Synthetic (GenScript); also called knob 'A' peptide

B*max (maximal binding capacity of fragment D, site 2) (Fibrinogen fragment D [7]): 11.3 RU
kon (Fibrinogen fragment D [17]): 1810 M⁻¹ s⁻¹
koff (Fibrinogen fragment D [8]): 0.00196 s⁻¹
koff (Fibrinogen fragment D [9]): 0.0811 s⁻¹
Bmax (maximal binding capacity of fragment D) (Fibrinogen fragment D [10]): 17.7 RU
kon (Fibrinogen fragment D [11]): 21700 M⁻¹ s⁻¹
koff (Fibrinogen fragment D [12]): 0.00727 s⁻¹
kon (Fibrinogen fragment D [12]): 12500 M⁻¹ s⁻¹
Bmax (maximal binding capacity of fragment D, site 1) (Fibrinogen fragment D [13]): 17.6 RU
Kd (Fibrinogen fragment D [14]): 3.73 µM
Kd (Fibrinogen fragment D [15]): 1.08 µM
B4: GPRPFPAC (peptide)
peptide: GPRPFPAC
notes: as for B1

B*max (maximal binding capacity of fragment D, site 2) (Fibrinogen fragment D [7]): 13.5 RU
koff (Fibrinogen fragment D [8]): 0.001 s⁻¹
koff (Fibrinogen fragment D [9]): 0.0301 s⁻¹
Bmax (maximal binding capacity of fragment D) (Fibrinogen fragment D [10]): 18.9 RU
kon (Fibrinogen fragment D [11]): 620 M⁻¹ s⁻¹
koff (Fibrinogen fragment D [12]): 0.0107 s⁻¹
Bmax (maximal binding capacity of fragment D, site 1) (Fibrinogen fragment D [13]): 8.36 RU
Kd (Fibrinogen fragment D [14]): 48.5 µM
Kd (Fibrinogen fragment D [15]): 25 µM
B5: GPRVVAAC (peptide)
peptide: GPRVVAAC
notes: as for B1

B*max (maximal binding capacity of fragment D, site 2) (Fibrinogen fragment D [7]): 10.3 RU
kon (Fibrinogen fragment D [17]): 260 M⁻¹ s⁻¹
koff (Fibrinogen fragment D [8]): 0.00407 s⁻¹
koff (Fibrinogen fragment D [9]): 0.0577 s⁻¹
Bmax (maximal binding capacity of fragment D) (Fibrinogen fragment D [10]): 16.3 RU
koff (Fibrinogen fragment D [12]): 0.0234 s⁻¹
kon (Fibrinogen fragment D [12]): 280 M⁻¹ s⁻¹
Bmax (maximal binding capacity of fragment D, site 1) (Fibrinogen fragment D [13]): 25.6 RU
Kd (Fibrinogen fragment D [14]): 53.9 µM
Kd (Fibrinogen fragment D [15]): 15.7 µM
B6: GPRVVERC (peptide)
peptide: GPRVVERC
notes: as for B1

IC50 (read off the curve) (Human fibrinogen (human)): 200 µg/mL
B7: GPRV tetrapeptide (peptide)
peptide: GPRV
